In paper PMC4103548, “Expression, and Molecular and Enzymatic Characterization of Cu-Containing Nitrite Reductase from a Marine Ammonia-Oxidizing Gammaproteobacterium, Nitrosococcus oceani” (Microbes and Environments, 2012):

Substrate: O=NO
Experiment: nitrite consumption, diazo-coupling colorimetric assay; Hanes-Woolf plot
Format: biochemical, Nitrosococcus oceani
Details: reduced methylviologen (dithionite) as electron donor, pH 5.5 (optimal), 30 mM CPT buffer, 37°C, under mineral oil, kcat per subunit

B1: Cu-containing nitrite reductase (recombinant NirK) from Nitrosococcus oceani NS58 (Nitrosococcus oceani ATCC 19707) (protein)
chain: ADGEASSYIANIGTHANLKDLERVRQELVAPPHLPDHQQAYSGKPRIVEIEMVIEEKEVEIEPNVFVQAMTFNGTNPGPIIVVHEGDYVELTLKNLDTNMLLHNIDFHPATGALGGGALTKVAPGQQVTLRFKADKAGTYVYHCAPGGLMTPYHVVSGMYGAIMIFPKKGLRDQNGKKVTYDKAYYVGEQGWYIPKDKNGKYKRYANAIEPYGDTLEVMRGLVPTHVTYNGSKGALTGDNAMKAKVGDSVLFIHSQANEDSRIHLIGGHGDLVWPGGSFKNTPMVDKETWHVNGGESVAALYTFKQPGLYAYLNHNLIQAFMLGGAAHVKVDGEWNNDLMEQVVKPSPINAD
Work on B1 yielded a Km of 52 µM and a kcat of 1600 s⁻¹.
